Measurements taken from paper PMC10213783, “Crystal structures of glycoprotein D of equine alphaherpesviruses reveal potential binding sites to the entry receptor MHC-I” (Frontiers in Microbiology, 2023).

T1: Recombinant equine MHC-I 3.1 (Eqca-1*00101) with the peptide SDYVKVSNI linked to β2-microglobulin (equine (horse) | horse | )
T1 chain 1: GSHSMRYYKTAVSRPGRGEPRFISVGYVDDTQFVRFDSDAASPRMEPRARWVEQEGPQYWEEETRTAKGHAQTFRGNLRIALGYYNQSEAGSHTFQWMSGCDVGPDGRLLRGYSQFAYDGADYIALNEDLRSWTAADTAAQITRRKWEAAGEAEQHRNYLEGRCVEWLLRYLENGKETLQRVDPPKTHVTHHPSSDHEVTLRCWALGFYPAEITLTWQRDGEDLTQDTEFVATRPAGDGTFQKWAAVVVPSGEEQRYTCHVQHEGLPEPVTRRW
T1 chain 2: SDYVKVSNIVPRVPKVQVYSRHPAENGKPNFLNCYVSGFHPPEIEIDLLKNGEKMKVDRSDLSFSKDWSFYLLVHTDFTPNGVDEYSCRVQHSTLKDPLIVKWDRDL

B1: Recombinant soluble glycoprotein D of equine herpesvirus type 4, gD4_(32-349) (domain or fragment)
chain: ENYRRVVRGNQNQRPEFPPPRYNFTIVTTYNETSLPSPFINDQVKIVDVRTVAATRPCEMIALIAKTNVDSIIKELDAAHKTYSARLTWFKITPTCATPIHDVVYMKCNPKLLFGMCDERSNILWLNSLITTAAETDDELGLVLASPAHSYSGLYRRVIQIDGRRIYTDFSVTIPSSHCPLSFEQNFGNPDRCKTPEQYSRGEVYTSRFLSEFNYRQGVHLAWVKHWFVQDGGNLPVQFYEAQAFARPVPPDNHPGFDSVESEITQNKTNPKQEQASPKPNPPFKWPSIKQLAPRIDEVDNAKEITTKKPPASNSNSTF
modifications: Insect-cell N-glycosylation; disulfides C87/C209, C126/C223, C138/C147. Entity position = paper number -30. The deposited construct starts at E31 although the text prints 32-349; TEV-His6 removed. / …
B2: Recombinant soluble glycoprotein D of equine herpesvirus type 1, gD1_(32-349) (domain or fragment)
chain: EKAKRAVRGRQDRPKEFPPPRYNYTILTRYNATALASPFINDQVKNVDLRIVTATRPCEMIALIAKTNIDSILKELAAAQKTYSARLTWFKIMPTCATPIHDVSYMKCNPKLSFAMCDERSDILWQASLITMAAETDDELGLVLAAPAHSASGLYRRVIEIDGRRIYTDFSVTIPSERCPIAFEQNFGNPDRCKTPEQYSRGEVFTRRFLGEFNFPQGEHMTWLKFWFVYDGGNLPVQFYEAQAFARPVPPDNHPGFDSVESEITQNKTDPKPGQADPKPNQPFKWPSIKHLAPRLDEVDEVIEPVTKPPKTSKSNSTF
modifications: N-linked glycosylation (GlcNAc) visible at N53 and N61
B3: C-terminally truncated EHV-4 glycoprotein D, gD4_(36-280) (domain or fragment)
chain: VVRGNQNQRPEFPPPRYNFTIVTTYNETSLPSPFINDQVKIVDVRTVAATRPCEMIALIAKTNVDSIIKELDAAHKTYSARLTWFKITPTCATPIHDVVYMKCNPKLLFGMCDERSNILWLNSLITTAAETDDELGLVLASPAHSYSGLYRRVIQIDGRRIYTDFSVTIPSSHCPLSFEQNFGNPDRCKTPEQYSRGEVYTSRFLSEFNYRQGVHLAWVKHWFVQDGGNLPVQFYEAQAFARPVP
modifications: Insect-cell N-glycosylation; disulfides C87/C209, C126/C223, C138/C147. Entity position = paper number -30. / Peptide is covalently linked to beta2m. The linker sequence is not printed (supplement) …

Target: T1, Recombinant equine MHC-I 3.1 …
Assay: SPR; recombinant equine MHC-I 3.1 amine-coupled to a polycarboxylate hydrogel chip HC200M; gDs injected in serial dilutions from 0 to about 10 uM, 15 min; 25°C; Biacore J; equilibrium response fitted to a 1:1 model; apparent constants
Conditions: both partners purified
B1 was tested, and the Kd was 5.8 ± 0.76 µM. B2 was tested, and the Kd was 7 µM. B3 showed a Kd of 6.7 ± 0.75 µM.
